Source: US20230048360A1

Columns and labels:
[1] = molecular target: cell surface-bound human GPC3 on GPC3+ HepG2 cells (human) (UniProt P51654); assay: FACS, control (helper) phage on GPC3+ HepG2 cells, anti-M13 then PE anti-mouse IgG; same sample in FIGS. 2A-2E
[2] = molecular target: cell surface-bound human GPC3 on GPC3+ HepG2 cells (human) (UniProt P51654); assay: FACS, control (helper) phage on GPC3+ HepG2 cells, anti-M13 then PE anti-mouse IgG; same sample in FIGS. 3A-3D
[3] = molecular target: cell surface-bound human GPC3 on GPC3+ HepG2 cells (human) (UniProt P51654); assay: FACS, helper phage on GPC3+ HepG2 cells, mouse anti-M13 then PE anti-mouse IgG; same sample shown in all panels of FIGS. 1A-1G
[4] = molecular target: cell surface-bound human GPC3 on GPC3+ HepG2 cells (human) (UniProt P51654); assay: FACS, control mIgG1 on GPC3-positive HepG2 cells, PE anti-mouse IgG (H and L)

Negative control (helper phage)
Median : PE-A [1]: 556
Median : PE-A [2]: 106
Median : PE-A [3]: 99.4

control mIgG1 (antibody)
Median : PE-A [4]: 93.8
